{"source": "paper PMC5753033", "about": "“WH2 and proline‐rich domains of WASP‐family proteins collaborate to accelerate actin filament elongation” (The EMBO Journal, 2017)", "target": "Atto540Q-labeled actin monomers (Acanthamoeba castellanii), Latrunculin B-stabilized (Acanthamoeba castellanii, Atto540Q-NHS at reactive lysine residues)", "experiment": "FRET or BRET; 7.5 nM Alexa488-labeled WAVE1 variant titrated with LatB-stabilized Atto540Q-actin; donor quenching; room temperature; 20 mM HEPES pH 7.0, 100 mM KCl, 1.5 mM MgCl2, 1 mM EGTA, 1 mM ATP; single site binding curve", "details": "both partners purified", "data": [{"binder": "Alexa488-labeled WAVE1 P_CA (WH2-delete construct) (domain or fragment, Alexa488-maleimide on Cys490) RPHEPPPPPPMHGAGDAKPIPTSISSATGLIENRPQSPATGRTPVFVSPTPPPPPPPLPSALSTSSLRASMTSTPPPPVPPPPPPPATALQAPAVPPPPAPLQIAPGVLHPAPPPIAPPLVQPSPPVARAAPVSETVPVHPLPQGEVQGLPPPPPPPPLPPPGIRPSSPVTVTALAHPPSGLHPTPSTAPGPHVPLMPPSPPSQVIPASEPKRHPSCLPVISDEEQREQEAKHERIENDVATILSRRIAVEYSDSEDDSEFDEVDWLE", "values": [{"measurement": "Kd", "result": 425, "unit": "nM"}]}]}
